The source of these data is US6465423 (CENTRAL SYDNEY AREA HEALTH SERVICE, dated 2002).

B1: 28K IGF-binding protein BP-28 (other, human, UniProt P08833 26-259, looked up)
chain: APWQCAPCSAEKLALCPPVSASCSEVTRSAGCGCCPMCALPLGAACGVATARCARGLSCRALPGEQQPLHALTRGQGACVQESDASAPHAAEAGSPESPESTEITEEELLDNFHLMAPSEEDHSILWDAISTYDGSKALHVTNIKKWKEPCRIELYRVVESLAKAQETSGEEISKFYLPNCNKNGFYHSRQCETSMDGEAGLCWCVYPWNGKRIPGSPEIRGDPNCQIYFNVQN
notes: mature; also called purified amniotic fluid BP-28
B2: acid-labile sub-unit (ALS) of insulin like growth factor binding protein complex (other, human, UniProt P35858 28-605, looked up)
chain: ADPGTPGEAEGPACPAACVCSYDDDADELSVFCSSRNLTRLPDGVPGGTQALWLDGNNLSSVPPAAFQNLSSLGFLNLQGGQLGSLEPQALLGLENLCHLHLERNQLRSLALGTFAHTPALASLGLSNNRLSRLEDGLFEGLGSLWDLNLGWNSLAVLPDAAFRGLGSLRELVLAGNRLAYLQPALFSGLAELRELDLSRNALRAIKANVFVQLPRLQKLYLDRNLIAAVAPGAFLGLKALRWLDLSHNRVAGLLEDTFPGLLGLRVLRLSHNAIASLRPRTFKDLHFLEELQLGHNRIRQLAERSFEGLGQLEVLTLDHNQLQEVKAGAFLGLTNVAVMNLSGNCLRNLPEQVFRGLGKLHSLHLEGSCLGRIRPHTFTGLSGLRRLFLKDNGLVGIEEQSLWGLAELLELDLTSNQLTHLPHRLFQGLGKLEYLLLSRNRLAELPADALGPLQRAFWLDVSHNRLEALPNSLLAPLGRLRYLSLRNNSLRTFTPQPPGLERLWLEGNPWDCGCPLKALRDFALQNPSAVPRFVQAICEGDDCQPPAYTYNNITCASPPEVVGLDLRDLSEAHFAPC
modifications: glycoprotein (N-linked carbohydrate); 125I-iodinated (chloramine-T) where used as tracer
notes: mature; 84/86 kDa doublet on SDS-PAGE; In some experiments partially pure ALS or serum fractions (peak B) were used; also called ALS tracer

Experiment [1] addresses B2. As to the kind of experiment: competition with cross-linked BP-53-IGF-I tracer in the routine ALS assay. On the procedure:
(§1) Samples to be tested for ALS activity were diluted to 200 μL in buffer containing 50 mmol/L sodium phosphate, 0.15 mol/L NaCl, and 0.2 g/L sodium azide, pH 6.5, with 10 g/L bovine albumin. Cross-linked BP-53-IGF-I tracer (~80,000 cpm; 4 ng) was added in 50 μL of the same buffer. After 25–30 min. of incubation at 22° C., 200 μL of the mixture was applied using a V-7 injector valve (Pharmacia) to a Superose-12 gel permeation column eluting at 1.0 mL/min (~2 megapascal pressure) in assay buffer without albumin. The column was calibrated with rabbit immunoglobulin G (Pentex; ~150K), which eluted mainly in fractions 22~24, peaking in fraction 23; BP-53-IGF-I tracer (~60K), which eluted mainly in fractions 25–27, peaking in fraction 26; IGF-I tracer bound to BP-28 (~35K, peaking in fraction 28); and IGF-I tracer (7.5K, peaking in fraction 33). Plotted as log (molecular mass) vs. elution volume, these four markers yielded a linear calibration curve (not shown). As a quantitative index of ALS activity (i.e. the degree of conversion of BP-53 to the 150K complex), the total radioactivity in fractions 22–24 was divided by that in fractions 25–27 to give a 150K/60K ratio. The values of this ratio typically varied between 0.1 and 2.0. The coefficient of variation of the 150K/60K ratio, based on analysis of variance of eight duplicate measurements covering a wide range of values, was 3.2%. […]

The target in experiment [2] is T1, Cross-linked BP-53-IGF-I tracer (covalent complex of BP-53 with [125I]IGF-I) (human, UniProt P17936 28-291; P05019 49-118, 125I-iodinated; cross-linked to BP-53 with disuccinimidyl suberate; glycoprotein; cross-linked to IGF-I with disuccinimidyl suberate).
T1 construct: mature; About 60K; Used as tracer in the routine ALS assay; also called covalent BP-53-IGF-I complex; cross-linked tracer
Description: routine ALS assay, Superose-12, no serum added. On the procedure:
The routine assay for ALS activity was developed, based on the conversion of a covalent BP-53-IGF-I complex of approximately 60K to 150K form in the presence of ALS.
as §1, with “2.0.” for “2.0. The coefficient of variation of the 150K/60K ratio, based on analysis of variance of eight duplicate measurements covering a wide range of values, was 3.2%.”

T1 sequence (P17936 28-291, chain 1 of 2): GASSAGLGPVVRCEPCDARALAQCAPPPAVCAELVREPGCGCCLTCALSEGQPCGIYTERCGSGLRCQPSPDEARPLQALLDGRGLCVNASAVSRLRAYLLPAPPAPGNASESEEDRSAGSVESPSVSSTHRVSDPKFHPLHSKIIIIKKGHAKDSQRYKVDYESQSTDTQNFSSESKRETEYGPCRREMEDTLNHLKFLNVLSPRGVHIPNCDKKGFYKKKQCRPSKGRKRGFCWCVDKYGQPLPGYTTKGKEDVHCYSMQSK
T1 sequence (P05019 49-118, chain 2 of 2): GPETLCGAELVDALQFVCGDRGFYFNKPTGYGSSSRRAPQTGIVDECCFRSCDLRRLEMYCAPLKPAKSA

As to B1, the binding result in experiment [1] is recorded as “no binding (tested: 0.8 µg/mL)”.

With B2, the 150K/60K ratio in experiment [2] was about 1.
